Among the data in paper PMC4760772, “The Development of a Recombinant scFv Monoclonal Antibody Targeting Canine CD20 for Use in Comparative Medicine” (PLoS ONE, 2016) are binding result, Kd and koff values, retold here.

For test [1], the target named is T1, bacterially expressed his-tagged canine CD20 protein (amino acids 140–190) (Canis lupus familiaris, UniProt Q3C2E2).
T1 construct: canine CD20, amino acids 140-190 comprising the extracellular domain; also called recombinant canine CD20 protein; His-tagged CD20 protein; source: bacterially expressed, purified by nickel chromatography
T1 sequence (Q3C2E2 140-190): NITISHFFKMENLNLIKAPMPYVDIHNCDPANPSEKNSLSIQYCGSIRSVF
Nature of the test: immunoblot; purified his-tagged canine CD20 (140-190) after electrophoresis without and with DTT, blotted with NCD1.2. The following applies: both partners purified. (In general: A western blot detects proteins with antibodies after separation by electrophoresis.)

The target of test [2] is T2, fluorescein-labeled peptide corresponding to human CD20 (NCEPANPSEKNSPSTQYCYS) (Homo sapiens (Human)., fluorescein (FITC) label, position not stated).
T2 construct: also called FITC tagged human CD20 peptide; fluorescent human CD20 peptide
T2 chain: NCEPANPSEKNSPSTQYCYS
Nature of the test: fluorescence polarisation; antibody titrated against 30 nM fluorescein-labeled human CD20 peptide in PBS, 0.05% Tween-20; 1 hr at room temperature, read at 21°C; purified mouse immunoglobulins subtracted as nonspecific binding. To be noted: both partners purified. Background: Polarisation of emitted light reports the rotation of a fluorescent probe.

The target of test [3] is T3, canine CD20 protein in clinically-derived canine cells and tissue (Canis lupus familiaris (Dog) (Canis …, UniProt Q3C2E2)).
T3 construct: canine CD20 on normal B cells and B-cell lymphoma cells of dogs; also called membranous CD20; CD20 in canine tissue
T3 sequence (Q3C2E2 whole entry): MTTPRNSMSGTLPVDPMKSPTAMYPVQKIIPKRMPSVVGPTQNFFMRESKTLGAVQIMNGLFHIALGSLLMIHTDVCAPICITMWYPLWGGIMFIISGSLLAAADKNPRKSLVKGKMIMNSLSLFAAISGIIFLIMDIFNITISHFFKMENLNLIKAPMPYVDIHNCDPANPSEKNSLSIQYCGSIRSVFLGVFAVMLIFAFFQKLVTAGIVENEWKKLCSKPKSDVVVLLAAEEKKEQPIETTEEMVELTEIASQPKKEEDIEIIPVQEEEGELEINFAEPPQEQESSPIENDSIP
Description: immunostaining of cells or tissue; immunohistochemistry on formalin fixed paraffin embedded canine lymphoma tissue (tissue micro array), heat induced antigen retrieval. To be noted: one partner purified.

Test [4] has as its target T4, biotinylated canine CD20 peptide (biotin-SGSGNCDPANPSEKNSLSIQYCGS) (Canis lupus familiaris, biotin on the N-terminus).
T4 construct: spacer between the biotin and the CD20 stretch; also called biotinylated CD20 peptide
T4 chain: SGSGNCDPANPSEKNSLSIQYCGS
Description: BLI; Octet RED, biotinylated CD20 peptide on streptavidin biosensors, antibody 32 nM to 0.5 nM in solution, 30°C, PBS pH 7.4 with 0.02% Tween 20, 0.005% sodium azide, 100 μg/mL BSA; global fit 1:1; relative Kd; absence of DTT. To be noted: both partners purified. (In general: BLI is a label-free optical method that tracks binding on a fibre tip over time.)

Test [5] has as its target T4, biotinylated canine CD20 peptide …. Nature of the test: BLI; Octet RED, as a1 but in the presence of DTT; relative Kd. The following applies: both partners purified.
The target in test [6] is T5, endogenous canine CD20 protein in 3132 canine lymphoma cells (Canis lupus familiaris (Dog) (Canis …, UniProt Q3C2E2)).
T5 construct: canine CD20, endogenous protein; also called authentic canine CD20 protein
T5 sequence (Q3C2E2 whole entry): as the sequence (Q3C2E2 whole entry) above
Description: immunoblot; lysates or chemical fractions of 3132 canine lymphoma cells, and lysates of H1299 cells transfected with human GFP-CD20, blotted with NCD1.2. To be noted: one partner purified.

Test [7] addresses T6, biotinylated canine CD20 peptide (biotin-SGSGNCDPANPSEKNSLSIQYCGS) (canine, biotin on the N-terminus).
T6 peptide: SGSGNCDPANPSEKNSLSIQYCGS
Description: BLI; without DTT.

In test [8] the target is T6, biotinylated canine CD20 peptide …. Description: BLI; with DTT.
The target in test [9] is T1, bacterially expressed his-tagged canine …. Nature of the test: ELISA; CHO supernatants (diluted 1:40 or 1:80) on His-tagged CD20 protein or on biotinylated CD20 peptide; detected with peroxidase conjugated protein A, TMB, OD 450 nm. To be noted: one partner purified.

A word on the Kd: it is the equilibrium constant for the complex coming apart. By koff is commonly meant the rate constant with which the complex falls apart. Low readings indicate a long-lived complex, high ones a short-lived complex.

B1: monoclonal antibody NCD1.2 (antibody, V domains shown)
VH: VESGGGLVQPGDSLRLSCATSGFTFTDYFMSWVRQPPGKSLEWLGLIRNKVNGYTAEYSASVKGRFTISRDNSRGILYLQMYTLRAEDSATYYCVRASTGTSFVYWGQGTLVTVSA
VL: AAAFSNPVTLGTSVSISCRSSKSLLHRNGFTYLYWYLQRPGQSPQLLIYQMSNLASGVPDRFSSSGSGTDFTLRISRVEAEDVGVYYCAQNLELPFTFGGGTKLELK
notes: VH cloned from the NCD1.2 hybridoma, as the VH of m9 and m10 (scFv-3 and scFv-7; identical VH genes, identical CDRs); the first residues of the cloned VH come from degenerate PCR primers; constant region of a mouse IgG; VL as the VL of m9 (scFv-3) or of m10 (scFv-7); both light chain mRNAs are made by the hybridoma; mouse light chain constant region; not described; IgG; also called NCD1.2 MAB; …
In the case of B1, the binding result in [1], in test [2], in test [3] and in test [6] was “binds” in each case. Also, the Kd in test [4] is 0.34 nM; in test [5], 0.31 nM. Moreover, the koff in test [7] amounted to 3.19e-05 s⁻¹; in [8] it was 3.41e-05 s⁻¹.

B2: scFv-3 secreted from CHO cells (scFv, V domains shown)
VH: EVNVVESGGGLVQPGDSLRLSCATSGFTFTDYFMSWVRQPPGKSLEWLGLIRNKVNGYTAEYSASVKGRFTISRDNSRGILYLQMYTLRAEDSATYYCVRASTGTSFVYWGQGTLVTVSA
VL: DIVMTQPPAIMSASPGEKVTMTCSASSSVSYMHWYQQKSGTSPKRWIYDTSKLASGVPDRFSSSGSGTDFTLRISRVEAEDVGVYYCAQNLELPFTFGGGTKLEIK
notes: VL of scFv-3, as in m9; linker, as in m9; VH of scFv-3, as in m9; Cloned into the KpnI-EcoRI sites of pCDNA3.1; also called scFv-3 supernatant
Consider B2, for which, in test [9], the binding result is given as “binds”.

B3: scFv-7 secreted from CHO cells (scFv, V domains shown)
VH: EVQGVESGGGLVQPGDSLRLSCATSGFTFTDYFMSWVRQPPGKSLEWLGLIRNKVNGYTAEYSASVKGRFTISRDNSRGILYLQMYTLRAEDSATYYCVRASTGTSFVYWGQGTLVTVSA
VL: IVMTQAAAFSNPVTLGTSVSISCRSSKSLLHRGFTYLYWYLQRPGQSPQLLIYQMSNLASGVPDRFSSSGSGTDFTLRISRVEAEDVGVYYCAQNLELPFTFGGGTKLELK
notes: VL of scFv-7, as in m10; linker, as in m10; VH of scFv-7, as in m10; Cloned into the KpnI-EcoRI sites of pCDNA3.1; also called scFv-7 supernatant
As for B3, the binding result in [9] is recorded as “binds”.
